# Values quoted from earlier work in PMC6387150.
# Target: IL-18 (Homo sapiens) (UniProt Q14116)
# Sequence (Q14116 37-193): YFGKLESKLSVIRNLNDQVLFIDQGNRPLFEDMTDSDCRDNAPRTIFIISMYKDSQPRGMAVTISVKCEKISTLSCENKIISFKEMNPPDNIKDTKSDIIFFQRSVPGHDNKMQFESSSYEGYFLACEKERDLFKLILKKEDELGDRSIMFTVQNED
# IL-18BP, sequence (O95998 31-194): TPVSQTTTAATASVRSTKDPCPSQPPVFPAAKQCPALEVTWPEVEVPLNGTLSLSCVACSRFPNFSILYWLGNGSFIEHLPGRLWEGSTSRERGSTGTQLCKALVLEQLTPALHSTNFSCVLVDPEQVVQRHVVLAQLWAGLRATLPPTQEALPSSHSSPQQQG
substance,measurement,value
IL-18BP (from UniProt O95998),Kd,400 pM
